In patent US20230087385A1, “Use of SAA, rSAA or inhibitors of SAA in the treatment of dysregulated inflammation” (LIKA ANTISEPSIS GBR, priority 2020, published 2023):

Key:
neutrophils = test: Anti-inflammatory potential of SAA on neutrophils (oxidative burst, migration, myeloperoxidase release, O2-release); type: cell-based
Procedure: The anti-inflammatory potential of SAA on neutrophils has been confirmed for SAA at reported serum concentrations. […] However, at higher concentrations of more than 50 μg/ml, SAA was stimulating. In addition, O2-release was inhibited up to 0.1 μg/ml, but the O2-release was increased above that. Thus, SAA plays a dual role, it down-regulates inflammatory processes in lower concentration but, during the full APR, the action of SAA can be promoting.

human neutrophils [1] = test: Binding of SAA to human neutrophils
From the text: (§1) This was the first time that a function of SAA was blocked by a monoclonal AA antibody. The monoclonal antibody mc29 used probably also blocks the laminin-like domain (aa 29-33) and may also be participating partially with the RGD-like domain (aa 39-41). In addition, human neutrophils were exposed to full human APS at different temperatures. […] This indicated an irreversible structural change of SAA (or its fragments) during high fever, which is blocking SAA's return to the reversible binding to HDL. (This febrile temperature-that induced the aggregation of AA-antigenic proteins has also been noticed in vitro and documented in FIG. 2 at 38° C. and 40° C.). The possibly unfavorable consequences of these aggregates in humans or animals are unknown today.

[2] = Immunodiffusion of SAA-HDL containing acute phase serum with polyclonal anti-AA at different temperatures; type: physicochemical; conditions: added to normal human serum
Procedure: Immunodiffusion (ID) at different temperatures. The ID was performed in 1.5% Seakem Agarose in 0.03 M barbital buffer, pH 8.6 with the same reagents in each of the three plates a 6 wells (A-C). Top and bottom well contained AA (0.1 mg/ml), the middle well contained polyclonal rabbit anti-AA antibodies undiluted and the 4 side wells contained elevated SAA-HDL containing APS from 4 patients at 1/10 diluted. Plate A after diffusion over night at room temperature, plate B at 4° C. over night and plate C first at 4° over night as plate B at 4° C. followed by room temperature for 6 hs similar to plate A.
In FIG. 1A, one recognizes a line of identity of AA with all four patients' sera as if the SAA (probably SAA1 and SAA2) reaction were done with pure SAA. At 4° C. in FIG. 1B, however, there is no reaction with SAA-HDL in serum. This is due to the hiding of the AA-reactive parts of SAA through HDL. […] Therefore, the separation of SAA from HDL is temperature-dependent.

human neutrophils [3] = test: FMLP-induced oxidative burst of normal human neutrophils; type: cell-based; conditions: SAA at 0.1 μg/ml and 1.0 μg/ml
From the text: as §1

[4] = SAA at reported serum concentrations

aa 1-14: SAA peptide aa 1-14 (RSFFSFLGEAFDGA; UniProt P0DJI8 19-32, looked up, fragment)
contribution of SAA peptides to the inhibitory effect on neutrophils (neutrophils): contributed to this inhibitory effect

83-104: SAA peptide aa 83-104 (NEWGRSGKDPNHFRPAGLPEKY; UniProt P0DJI8 101-122, looked up, fragment)
contribution of SAA peptides to the inhibitory effect on neutrophils (neutrophils): contributed to this inhibitory effect

B1: recombinant SAA2: recombinant serum amyloid A2 protein (SEQ ID NO: 2: human SAA2) (protein, UniProt P0DJI9 19-122, looked up)
Serum amyloid A-2 protein: RSFFSFLGEAFDGARDMWRAYSDMREANYIGSDKYFHARGNYDAAKRGPGGAWAAEVISNARENIQRLTGRGAEDSLADQAANKWGRSGRDPNHFRPAGLPEKY
binding with human neutrophils (human neutrophils [1]): Strong binding
temperature-dependent immunodiffusion behavior as in FIG. 1 [2]: repeat exactly that behavior

B2: SAA: serum amyloid A protein, 12.5 kDa acute phase protein isolated from human serum (protein)
chain: RSFFSFLGEAFDGARDMWRAYSDMREANYIGSDKYFHARGNYDAAKRGPGGAWAAEVITDARENIQRFFGHGAEDS
FMLP-induced oxidative burst of normal human neutrophils (human neutrophils [3]): reduced, concentration-dependently
binding with human neutrophils (human neutrophils [1]): Strong binding
migration of neutrophils (neutrophils; [4]): inhibited
neutrophil myeloperoxidase release (neutrophils; [4]): inhibited
oxidative burst of neutrophils (neutrophils; [4]): inhibited
O2-release (neutrophils; above 0.1 μg/ml): increased
effect on neutrophils at higher concentrations (neutrophils; more than 50 μg/ml): stimulating
O2-release (neutrophils; up to 0.1 μg/ml): inhibited
